Reference: patent US7101845 (JOSLIN DIABETES CENTER, dated 2006)
Positions of bridges follow the written chain, without caps; N, C: chain ends.

Biological target: MCH receptor (MCHR1) (mouse, UniProt Q8JZL2 1-353)
Experiment: cell-based or functional assay

MCH receptor (MCHR1), sequence (Q8JZL2 whole entry): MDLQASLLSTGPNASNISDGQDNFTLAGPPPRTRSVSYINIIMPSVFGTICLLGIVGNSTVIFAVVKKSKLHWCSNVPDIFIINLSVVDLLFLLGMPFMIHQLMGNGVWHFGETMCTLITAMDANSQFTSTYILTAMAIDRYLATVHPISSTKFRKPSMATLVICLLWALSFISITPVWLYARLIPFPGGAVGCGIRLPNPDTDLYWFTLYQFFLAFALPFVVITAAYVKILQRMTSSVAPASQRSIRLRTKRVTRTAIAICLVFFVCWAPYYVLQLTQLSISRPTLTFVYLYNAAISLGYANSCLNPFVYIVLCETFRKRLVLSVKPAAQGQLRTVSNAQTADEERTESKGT

H-DFDMLRCMLGRVYRPCWQV-OH (disulfide 7-16 (inferred)) [Melanocyte concentrating hormone (MCH)]
insulin secretion from islets of MCH over expressing mice: 4 fold | insulin secretion from overnight cultured islets of C57B1/6J mice, 100 nM MCH, 30 min, 11.1 mM glucose: 2.4 fold
